From patent US20190233495A1 (Sanofi, published 2019)
Values belong to the binder of their own block, whether it stands above or below them. Non-standard residues stand in square brackets, D forms with d. Phe(4-F) = N[C@@H](Cc1ccc(F)cc1)C(=O)O; 1Nal = N[C@@H](Cc1cccc2ccccc12)C(=O)O; αMeL = CC(C)C[C@](C)(N)C(=O)O; Nle = CCCC[C@H](N)C(=O)O; Aib = CC(C)(N)C(=O)O

Molecular target: T1, RXFP1 receptor (UniProt Q9HBX9 1-757, limits assumed)
T1 sequence (looked up): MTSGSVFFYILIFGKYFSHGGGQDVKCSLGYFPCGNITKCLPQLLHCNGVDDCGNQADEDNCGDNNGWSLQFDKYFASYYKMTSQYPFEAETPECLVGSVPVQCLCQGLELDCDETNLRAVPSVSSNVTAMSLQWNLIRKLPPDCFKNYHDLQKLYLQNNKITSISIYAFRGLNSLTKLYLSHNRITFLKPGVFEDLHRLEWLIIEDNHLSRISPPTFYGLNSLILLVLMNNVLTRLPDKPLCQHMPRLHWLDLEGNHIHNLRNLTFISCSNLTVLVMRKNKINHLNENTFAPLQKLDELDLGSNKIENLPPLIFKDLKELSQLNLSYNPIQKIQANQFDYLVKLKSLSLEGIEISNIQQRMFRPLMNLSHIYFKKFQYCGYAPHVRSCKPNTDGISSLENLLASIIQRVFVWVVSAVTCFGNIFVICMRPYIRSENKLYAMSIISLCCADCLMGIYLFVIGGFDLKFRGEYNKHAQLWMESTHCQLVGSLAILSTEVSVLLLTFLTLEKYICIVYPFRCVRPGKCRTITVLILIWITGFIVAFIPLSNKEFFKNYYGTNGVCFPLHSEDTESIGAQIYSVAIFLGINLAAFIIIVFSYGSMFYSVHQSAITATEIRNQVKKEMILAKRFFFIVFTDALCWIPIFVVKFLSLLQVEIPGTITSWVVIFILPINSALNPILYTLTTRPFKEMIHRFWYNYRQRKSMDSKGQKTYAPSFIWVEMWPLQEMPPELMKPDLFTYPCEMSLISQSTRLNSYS
Test: cell-based or functional assay

- cAMP assay in OVCAR 5 cells EC50: 41 nM
- cAMP assay in OVCAR 5 cells Emax: 93%
B1: SEQ ID NO: 58 (peptide)
peptide: Ac-LEGREKVRAQI[Aib][Aib]EGQSTYS[Aib]RKK-NH2
SMILES: CC[C@H](C)[C@H](NC(=O)[C@H](CCC(N)=O)NC(=O)[C@H](C)NC(=O)[C@H](CCCNC(=N)N)NC(=O)[C@@H](NC(=O)[C@H](CCCCN)NC(=O)[C@H](CCC(=O)O)NC(=O)[C@H](CCCNC(=N)N)NC(=O)CNC(=O)[C@H](CCC(=O)O)NC(=O)[C@H](CC(C)C)NC(C)=O)C(C)C)C(=O)NC(C)(C)C(=O)NC(C)(C)C(=O)N[C@@H](CCC(=O)O)C(=O)NCC(=O)N[C@@H](CCC(N)=O)C(=O)N[C@@H](CO)C(=O)N[C@H](C(=O)N[C@@H](Cc1ccc(O)cc1)C(=O)N[C@@H](CO)C(=O)NC(C)(C)C(=O)N[C@@H](CCCNC(=N)N)C(=O)N[C@@H](CCCCN)C(=O)N[C@@H](CCCCN)C(N)=O)[C@@H](C)O

- cAMP assay in OVCAR 5 cells EC50: 60 nM
- cAMP assay in OVCAR 5 cells Emax: 103%
B2: SEQ ID NO: 8 (peptide)
peptide: Ac-LEGREKVRAQI[Aib]IEG[Nle]SKWSKRKK-NH2
SMILES: CCCC[C@H](NC(=O)CNC(=O)[C@H](CCC(=O)O)NC(=O)[C@@H](NC(=O)C(C)(C)NC(=O)[C@@H](NC(=O)[C@H](CCC(N)=O)NC(=O)[C@H](C)NC(=O)[C@H](CCCNC(=N)N)NC(=O)[C@@H](NC(=O)[C@H](CCCCN)NC(=O)[C@H](CCC(=O)O)NC(=O)[C@H](CCCNC(=N)N)NC(=O)CNC(=O)[C@H](CCC(=O)O)NC(=O)[C@H](CC(C)C)NC(C)=O)C(C)C)[C@@H](C)CC)[C@@H](C)CC)C(=O)N[C@@H](CO)C(=O)N[C@@H](CCCCN)C(=O)N[C@@H](Cc1c[nH]c2ccccc12)C(=O)N[C@@H](CO)C(=O)N[C@@H](CCCCN)C(=O)N[C@@H](CCCNC(=N)N)C(=O)N[C@@H](CCCCN)C(=O)N[C@@H](CCCCN)C(N)=O

- cAMP assay in OVCAR 5 cells EC50: 29.8 nM
- cAMP assay in OVCAR 5 cells Emax: 86%
B3: SEQ ID NO: 59 (peptide)
peptide: Ac-LEGREKVRAQI[Aib][Aib]EGQST[Phe(4-F)]S[Aib]RKK-NH2
SMILES: CC[C@H](C)[C@H](NC(=O)[C@H](CCC(N)=O)NC(=O)[C@H](C)NC(=O)[C@H](CCCNC(=N)N)NC(=O)[C@@H](NC(=O)[C@H](CCCCN)NC(=O)[C@H](CCC(=O)O)NC(=O)[C@H](CCCNC(=N)N)NC(=O)CNC(=O)[C@H](CCC(=O)O)NC(=O)[C@H](CC(C)C)NC(C)=O)C(C)C)C(=O)NC(C)(C)C(=O)NC(C)(C)C(=O)N[C@@H](CCC(=O)O)C(=O)NCC(=O)N[C@@H](CCC(N)=O)C(=O)N[C@@H](CO)C(=O)N[C@H](C(=O)N[C@@H](Cc1ccc(F)cc1)C(=O)N[C@@H](CO)C(=O)NC(C)(C)C(=O)N[C@@H](CCCNC(=N)N)C(=O)N[C@@H](CCCCN)C(=O)N[C@@H](CCCCN)C(N)=O)[C@@H](C)O

- cAMP assay in OVCAR 5 cells EC50: 37.6 nM
- cAMP assay in OVCAR 5 cells Emax: 100%
B4: SEQ ID NO: 9 (peptide)
peptide: Ac-LEGREKVRAQI[Aib]IEGMSK[1Nal]SKRKK-NH2
SMILES: CC[C@H](C)[C@H](NC(=O)[C@H](CCC(N)=O)NC(=O)[C@H](C)NC(=O)[C@H](CCCNC(=N)N)NC(=O)[C@@H](NC(=O)[C@H](CCCCN)NC(=O)[C@H](CCC(=O)O)NC(=O)[C@H](CCCNC(=N)N)NC(=O)CNC(=O)[C@H](CCC(=O)O)NC(=O)[C@H](CC(C)C)NC(C)=O)C(C)C)C(=O)NC(C)(C)C(=O)N[C@H](C(=O)N[C@@H](CCC(=O)O)C(=O)NCC(=O)N[C@@H](CCSC)C(=O)N[C@@H](CO)C(=O)N[C@@H](CCCCN)C(=O)N[C@@H](Cc1cccc2ccccc12)C(=O)N[C@@H](CO)C(=O)N[C@@H](CCCCN)C(=O)N[C@@H](CCCNC(=N)N)C(=O)N[C@@H](CCCCN)C(=O)N[C@@H](CCCCN)C(N)=O)[C@@H](C)CC

- cAMP assay in OVCAR 5 cells EC50: 22.9 nM
- cAMP assay in OVCAR 5 cells Emax: 103%
B5: SEQ ID NO: 10 (peptide)
peptide: Ac-LEGREKVRAQI[Aib][Aib]EGMSTWSKRKK-NH2
SMILES: CC[C@H](C)[C@H](NC(=O)[C@H](CCC(N)=O)NC(=O)[C@H](C)NC(=O)[C@H](CCCNC(=N)N)NC(=O)[C@@H](NC(=O)[C@H](CCCCN)NC(=O)[C@H](CCC(=O)O)NC(=O)[C@H](CCCNC(=N)N)NC(=O)CNC(=O)[C@H](CCC(=O)O)NC(=O)[C@H](CC(C)C)NC(C)=O)C(C)C)C(=O)NC(C)(C)C(=O)NC(C)(C)C(=O)N[C@@H](CCC(=O)O)C(=O)NCC(=O)N[C@@H](CCSC)C(=O)N[C@@H](CO)C(=O)N[C@H](C(=O)N[C@@H](Cc1c[nH]c2ccccc12)C(=O)N[C@@H](CO)C(=O)N[C@@H](CCCCN)C(=O)N[C@@H](CCCNC(=N)N)C(=O)N[C@@H](CCCCN)C(=O)N[C@@H](CCCCN)C(N)=O)[C@@H](C)O

- cAMP assay in OVCAR 5 cells EC50: 56.6 nM
- cAMP assay in OVCAR 5 cells Emax: 101%
B6: SEQ ID NO: 7 (peptide)
peptide: Ac-LEGREKVR[Aib]QI[Aib]IEGMSKWSKRKK-NH2
SMILES: CC[C@H](C)[C@H](NC(=O)[C@H](CCC(N)=O)NC(=O)C(C)(C)NC(=O)[C@H](CCCNC(=N)N)NC(=O)[C@@H](NC(=O)[C@H](CCCCN)NC(=O)[C@H](CCC(=O)O)NC(=O)[C@H](CCCNC(=N)N)NC(=O)CNC(=O)[C@H](CCC(=O)O)NC(=O)[C@H](CC(C)C)NC(C)=O)C(C)C)C(=O)NC(C)(C)C(=O)N[C@H](C(=O)N[C@@H](CCC(=O)O)C(=O)NCC(=O)N[C@@H](CCSC)C(=O)N[C@@H](CO)C(=O)N[C@@H](CCCCN)C(=O)N[C@@H](Cc1c[nH]c2ccccc12)C(=O)N[C@@H](CO)C(=O)N[C@@H](CCCCN)C(=O)N[C@@H](CCCNC(=N)N)C(=O)N[C@@H](CCCCN)C(=O)N[C@@H](CCCCN)C(N)=O)[C@@H](C)CC

- cAMP assay in OVCAR 5 cells EC50: 24.4 nM
- cAMP assay in OVCAR 5 cells Emax: 91%
B7: SEQ ID NO: 57 (peptide)
peptide: Ac-LEGREKVRAQI[Aib][Aib]EGQSTFS[Aib]RKK-NH2
SMILES: CC[C@H](C)[C@H](NC(=O)[C@H](CCC(N)=O)NC(=O)[C@H](C)NC(=O)[C@H](CCCNC(=N)N)NC(=O)[C@@H](NC(=O)[C@H](CCCCN)NC(=O)[C@H](CCC(=O)O)NC(=O)[C@H](CCCNC(=N)N)NC(=O)CNC(=O)[C@H](CCC(=O)O)NC(=O)[C@H](CC(C)C)NC(C)=O)C(C)C)C(=O)NC(C)(C)C(=O)NC(C)(C)C(=O)N[C@@H](CCC(=O)O)C(=O)NCC(=O)N[C@@H](CCC(N)=O)C(=O)N[C@@H](CO)C(=O)N[C@H](C(=O)N[C@@H](Cc1ccccc1)C(=O)N[C@@H](CO)C(=O)NC(C)(C)C(=O)N[C@@H](CCCNC(=N)N)C(=O)N[C@@H](CCCCN)C(=O)N[C@@H](CCCCN)C(N)=O)[C@@H](C)O

- cAMP assay in OVCAR 5 cells EC50: 44.8 nM
- cAMP assay in OVCAR 5 cells Emax: 102%
B8: SEQ ID NO: 11 (peptide)
peptide: Ac-[Aib]EGREKVRAQI[Aib][Aib]EGMSKWSKRKK-NH2
SMILES: CC[C@H](C)[C@H](NC(=O)[C@H](CCC(N)=O)NC(=O)[C@H](C)NC(=O)[C@H](CCCNC(=N)N)NC(=O)[C@@H](NC(=O)[C@H](CCCCN)NC(=O)[C@H](CCC(=O)O)NC(=O)[C@H](CCCNC(=N)N)NC(=O)CNC(=O)[C@H](CCC(=O)O)NC(=O)C(C)(C)NC(C)=O)C(C)C)C(=O)NC(C)(C)C(=O)NC(C)(C)C(=O)N[C@@H](CCC(=O)O)C(=O)NCC(=O)N[C@@H](CCSC)C(=O)N[C@@H](CO)C(=O)N[C@@H](CCCCN)C(=O)N[C@@H](Cc1c[nH]c2ccccc12)C(=O)N[C@@H](CO)C(=O)N[C@@H](CCCCN)C(=O)N[C@@H](CCCNC(=N)N)C(=O)N[C@@H](CCCCN)C(=O)N[C@@H](CCCCN)C(N)=O

- cAMP assay in OVCAR 5 cells EC50: 12.3 nM
- cAMP assay in OVCAR 5 cells Emax: 95%
B9: SEQ ID NO: 56 (peptide)
peptide: Ac-[αMeL]EGREKVRAK(Ac)I[Aib][Aib]EG[Nle]STWS[Aib]RKK(Ac)-NH2
SMILES: CCCC[C@H](NC(=O)CNC(=O)[C@H](CCC(=O)O)NC(=O)C(C)(C)NC(=O)C(C)(C)NC(=O)[C@@H](NC(=O)[C@H](CCCCNC(C)=O)NC(=O)[C@H](C)NC(=O)[C@H](CCCNC(=N)N)NC(=O)[C@@H](NC(=O)[C@H](CCCCN)NC(=O)[C@H](CCC(=O)O)NC(=O)[C@H](CCCNC(=N)N)NC(=O)CNC(=O)[C@H](CCC(=O)O)NC(=O)[C@](C)(CC(C)C)NC(C)=O)C(C)C)[C@@H](C)CC)C(=O)N[C@@H](CO)C(=O)N[C@H](C(=O)N[C@@H](Cc1c[nH]c2ccccc12)C(=O)N[C@@H](CO)C(=O)NC(C)(C)C(=O)N[C@@H](CCCNC(=N)N)C(=O)N[C@@H](CCCCN)C(=O)N[C@@H](CCCCNC(C)=O)C(N)=O)[C@@H](C)O
